{"source": "the DeepSol protein solubility set"}
{"experiment": "soluble on expression in E. coli; label from the status in PepcDB or PDB records"}
{"sequence": "MTDTQVTWLTQESHDRLKAELDQLIANRPVIAAEINDRREEGDLRENGGYHAAREEQGQQEARIRQLQDLLSNAKVGEAPKQSGVALPGSVVKVYYNGDKSDSETFLIATRQEGVSDGKLEVYSPNSPLGGALIDAKVGETRSYTVPNGSTVSVTLVSAEPYHS", "soluble on expression in E. coli": "soluble"}
{"sequence": "MTEEFNESMINDIKEGDKVTGEVQQVEDKQVVVHINGGKFNGIIPISQLSTHHIENPSEVVKQGDEIEAYVTKIEVDEENDSGVYILSKRQLETEKSYEYLQEKLDNDEIIEAKVTEVVKGGLVVDVGQRGFVPASLISTDFIEDFSVFDGQTIRIKVEELDPENNRVILSRKAVEQAENDVKKASLLESLNAGDVIKGKVARLTNFGAFVDIGGVDGLVHVSELSHEHVDSPEDVVSVGQEVDVKVKSVEKDAERISLSIKDTLPTPFESIKGQFHEDDVIEGKVVRLANFGAFVEIAPGVQGLVHISEIAHEHIGTPGEKLEPGQQVNVKILGIDEENERISLSIKATLPKEDVVESDDATTQSYLSNDSIEDNPTLGDVFGDKFKDLKF", "soluble on expression in E. coli": "soluble"}
{"sequence": "MTEIRVHQGDLPNLDNYRIDAVAVDTETLGLQPHRDRLCVVQLSSGDGTADVIQIAKGQKSAPNLVRLLSDRDITKIFHFGRFDLAILAHTFGVMPDVVFCTKIASKLTRTYTDRHGLKEICGELLNVNISKQQQSSDWAAETLSRAQIEYAASDVLYLHRLKDIFEERLKREERESVAKACFQFLPMRANLDLLGWSEIDIFAHS", "soluble on expression in E. coli": "not soluble"}
{"sequence": "MTELHGECMCGAVTITATPARAALGACHCDMCRRWTSSAYVSFPVEPGYAALGPVKVYGSSDWAERAFCGTCGSVLWYRITLPGKMHGQTQMAAGLFENAGGNALKLELYIDKKPEGYAFAGERRQMTQAEVEAMYAPSDLGDSQ", "soluble on expression in E. coli": "not soluble"}
{"sequence": "MTENKSFKESHPLDDFISDKELSNTTIQKEKLTIEQQKQVDTISKQINPLDNEGLLAFGSDLQKQMSQFSHQMLDEVQSKDVGPIGDTLSDLMSKLKSVNPNELNTDKPSMLKRIFSRAKSSINEIFSRMQSVSAQVDRITIQLQKHQTHLTRDIELLDTLYDKNKQYFDDLSLHIIAAQQKKLQLENEKLPQLQQQAQQSTNQMDIQQVSDMQQFIDRLDKRIYDLQLSRQIALQTAPQIRMIQNVNQALAEKIQSSILTSIPLWKNQMAIALTLMRQRNAVAAQRAVTDTTNDLLTANAEMLKQNAIETATENERGIVDLDTLKRTQRNIIETIEETLIIQQHGREERQLAEKELQQLEQDLKSHLVNIKGPNKQS", "soluble on expression in E. coli": "not soluble"}
{"sequence": "MTEQLKDFDVAEHLTSEEEIQLYLNEILQEDNIELILSALGDIARARNMSQIARDAGISREGLYKALSGTGNPTFATVMKVMKALNLQFQVQQSRFA", "soluble on expression in E. coli": "not soluble"}
{"sequence": "MTETTHVTSCPLNCWDVCGLKVTVNEGKVVRVDGDEHHPITKGNICGRGRMLKERVNAKERLLYPLKKVNGQFVRISWEEALDDIAGKMRKLKEQFGPTAVLHSHDYANNGLLKNLDRRFFNCYGGATELIGSLCWGAGIEAQTWDFGNAYSHAPEDIDNSRHIVIWGRNVARTNMHLFERLLAAKKRGATIVVIDPLFGPTARIADQYVCIKPGMDAFLAMGIMKELLRLGLEDRAFIKQHTIGFDDVKQLLQTISLAEIERHTGVSRDQMTKLARLYGDRPTATYLGLGMQRYANGGNTIRWIDALVAASGNVGIPGGGANFGNLQVGECFDKAALTLPERKTASRTWTMMKQGEEILRADDPPIGMVIVTCGNPLAQVPNTNLMKKAFASIETVVVFEQFMTDTAAMADYVLPVAASFEEEDVYCSSMYHAYLNYGPKLVDPPGEAKPDLWIWTELAKRLGFGDDFAYTREQFLAMALRPLEHHGITLKRLKTEHRVLLPVEPVPWRDRRFQTPSGKYEFTSTIAKKKGMDGRLQIMYPAESEESNPALAAKYPYRLLTIHPLRSNHSQHYPLIPALQTVRIEVAADVAAAKGLADGDRARVYNDRGSLVGTVKVLDGAYPGTINIDEGQWGVFGGPVNVLTSDLESDNGCGSALYDCLVNIEKVTSEAK", "soluble on expression in E. coli": "soluble"}
{"sequence": "MTEYKLVVVGDGGVGKSALTIQLIQNHFVEEYDPTIEDSYRKQVVIDGETCLLDILDTAGQEEYSAMRDQYMRTGEGFLLVFAVNEAKSFENVANYREQIRRVKDSDDVPMVLVGNKCDLSSRSVDFRTVSETAKGYGIPNVDTSAKTRMGVDEAFYTLVREIRKHRERHDNNKPQKKKKCQIM", "soluble on expression in E. coli": "not soluble"}
{"sequence": "MTEYNIGAKIKKLRLAKKLTLQAVARETGFSPALISQIENNNVSPPIATLSKIAKFFDVKISLFFSEDEEEYRYEVVRRGERKVIPRVISRAGTSQGYSYESLSFRKQNKKMEPFLLTVTEKAAEENTYNHDGEEFLFVMKGTAELLLEDERVILEEGDCVYFDSSLKHRLLSRDGSEVQVLAVVTR", "soluble on expression in E. coli": "not soluble"}
{"sequence": "MTFLIKRETQVDQILRDIRAVVNQMVPKEAKITEIEFEGPELVIYVKNPEAIMKDGELIKDLAKVLKKRISVRPDPEVLLPPEEAEKLIFEIVPKEAEITNIAFDPSVGEVLIEAKKPGLVIGKNGETLRLITQKVKWAPKVVRTPPLQSQTIYSIRQILQTESKDRRKFLRQVGRNIYRKPEYKSRWIRITGLGGFREVGRSALLVQTDESFVLVDFGVNVAMLNDPYKAFPHFDAPEFQYVLREGLLDAIIITHAHLDHCGMLPYLFRYNLFDGPIYTTPPTRDLMVLLQKDFIEIQQSNGQDPLYRPRDIKEVIKHTITLDYGEVRDISPDIRLTLHNAGHILGSAIVHLHIGNGLHNIAITGDFKFIPTRLLEPANAKFPRLETLVMESTYGGANDIQMPREEAEKRLIEVIHNTIKRGGKVLIPAMAVGRAQEVMMVLEEYARIGGIEVPIYLDGMIWEATAIHTAYPEYLSRRLREQIFKEGYNPFLSEIFHPVANSRERQDIIDSNEPAIIIASSGMLVGGPSVEYFKQLAPDPKNSIIFVSYQAEGTLGRQVQSGIREIPMVGEEGRTEVIKVNMEVHTIDGFSGHADRRELMNYVAKVRPRPERIITVHGEPQKCLDLATSIHRKFGISTRAPNNLDTIRLR", "soluble on expression in E. coli": "soluble"}
{"sequence": "MTGSVVVAGLGPGAQELITPEVSAALALATDIVGYAPYVARVAERDGLQRHASDNREELDRAGFALRLATEGRHVVIVSSGDPGVFAMAAALFEAIEAGDPSWRELDIRVLPGIS", "soluble on expression in E. coli": "not soluble"}
{"sequence": "MTGTYTELIEGSERLSGLTDVDEVIKDLSRLLRKLVKTRWIAVYFFDRERRDFAPARSTGLPASFLPVFREMPLAPDKIPLLKSMLRKRQHLMLTDPGSSDLLTPKLRKLLRNLCVLAVPMVVRTQVIGAVFMARTRDNPPFSDAETAIIRDLVSHAALVVSHMQLFDE", "soluble on expression in E. coli": "not soluble"}
{"sequence": "MTGVLVGCSVEKTNTNKVNIDKVEIVAPNVQGAGWDLTARAMQKTLTEEKIFTKPITVTNKVGGSGDVGWKYTKQKGGHVLAINSSLLITNNLLGHSKLTYKDFTPLATLASDWEVVVVSKDSNIENANQLMEQLKQNKKNFKIGVAPGLGNDDHLSFVQVSKAFGINPAELQFFVYENKEKIISALTNKQINAATMTLSEAEKQYKAGKIKILAVSAPKRIDRLPQIPTWKEQGIDVIFQHWKGIMGPKDMTEEEVAYWDDVIKRMVESDSWKGILRERGWESFYKGSGESSGWYGGMIKTEKVDEEGSYRMRFLGLFIGNLIYS", "soluble on expression in E. coli": "not soluble"}
{"sequence": "MTHELISLPYAVDALAPVISKETVEFHHGKHLKTYVDNLNKLIIGTEFENADLNTIVQKSEGGIFNNAGQTLNHNLYFTQFRPGKGGAPKGKLGEAIDKQFGSFEKFKEEFNTAGTTLFGSGWVWLASDANGKLSIEKEPNAGNPVRKGLNPLLGFDVWEHAYYLTYQNRRADHLKDLWSIVDWDIVESRY", "soluble on expression in E. coli": "soluble"}
{"sequence": "MTHRPELHVTPEIGILDAPAGALFDGTRWHLFHQFRPKATAPSRWAHDYATTDPFNWEICDDVIAPQGDEIRLRAGSVTSDGKTTRLYFTSITNEGDSIHLAEITDLDATTYDVNDDATTTDPHVTRLGQVVADQGGYTNFRSPCVVPNWVTADDRDEGHSGWIMLAVTGDMDEPTLVILDSENGTDWELRGPLKVVGNSGIEAERPVAPRIIRLRDEIDQNVYDILIVTIEIGGIDRSGYLVGKLHNNIFTVVSPFTRIDYGHDFTRPRNTNYTSHLNSSVAPEHRYSHAHVFGLMNGIGRLDDATTHLSFREEQWANCLSLPRRMTLQGGKIYHTPVAGLPDAIRDSDHAIMWTGLLDVPLGEKVTVELVDTTGNIAAKITHYGDLLELDRSMNPHHEGDDIAVAPLTEDDTDSVTIIVDGSTVEVFADGGQIAMASRVYFNGYCEAFTPQASDGADILRSDVTKPLG", "soluble on expression in E. coli": "not soluble"}
